From patent US20140072613A1 (published 2014)

T1: Flt3(h) (human, UniProt P36888 564-993, limits assumed)
T1 sequence (looked up): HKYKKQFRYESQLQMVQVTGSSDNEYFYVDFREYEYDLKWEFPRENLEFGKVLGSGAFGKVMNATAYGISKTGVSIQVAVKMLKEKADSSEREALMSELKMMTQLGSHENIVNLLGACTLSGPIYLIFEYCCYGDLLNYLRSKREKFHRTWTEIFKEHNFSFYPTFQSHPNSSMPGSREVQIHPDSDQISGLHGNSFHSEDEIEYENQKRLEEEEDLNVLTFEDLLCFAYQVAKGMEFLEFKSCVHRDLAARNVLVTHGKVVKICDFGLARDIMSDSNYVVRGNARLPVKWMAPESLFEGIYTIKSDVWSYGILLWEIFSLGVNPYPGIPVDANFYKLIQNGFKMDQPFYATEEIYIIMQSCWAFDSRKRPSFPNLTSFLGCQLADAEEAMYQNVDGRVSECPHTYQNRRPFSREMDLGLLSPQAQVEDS

T2: Ret(V804L)(h) (human, UniProt P07949 658-1114, limits assumed)
T2 sequence (looked up): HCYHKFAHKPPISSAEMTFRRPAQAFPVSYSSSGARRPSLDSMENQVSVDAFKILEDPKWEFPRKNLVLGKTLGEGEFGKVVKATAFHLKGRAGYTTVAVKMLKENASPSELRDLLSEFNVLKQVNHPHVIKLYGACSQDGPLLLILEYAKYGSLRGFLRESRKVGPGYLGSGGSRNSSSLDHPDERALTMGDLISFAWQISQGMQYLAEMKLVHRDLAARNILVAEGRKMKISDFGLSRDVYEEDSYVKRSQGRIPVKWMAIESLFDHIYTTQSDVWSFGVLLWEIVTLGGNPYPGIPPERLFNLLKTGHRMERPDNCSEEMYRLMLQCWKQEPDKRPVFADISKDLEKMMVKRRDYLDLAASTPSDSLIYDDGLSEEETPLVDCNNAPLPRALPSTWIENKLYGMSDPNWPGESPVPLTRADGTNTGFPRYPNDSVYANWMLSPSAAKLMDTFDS

T3: Ret(h) (human, UniProt P07949 658-1114, limits assumed)
T3 sequence (looked up): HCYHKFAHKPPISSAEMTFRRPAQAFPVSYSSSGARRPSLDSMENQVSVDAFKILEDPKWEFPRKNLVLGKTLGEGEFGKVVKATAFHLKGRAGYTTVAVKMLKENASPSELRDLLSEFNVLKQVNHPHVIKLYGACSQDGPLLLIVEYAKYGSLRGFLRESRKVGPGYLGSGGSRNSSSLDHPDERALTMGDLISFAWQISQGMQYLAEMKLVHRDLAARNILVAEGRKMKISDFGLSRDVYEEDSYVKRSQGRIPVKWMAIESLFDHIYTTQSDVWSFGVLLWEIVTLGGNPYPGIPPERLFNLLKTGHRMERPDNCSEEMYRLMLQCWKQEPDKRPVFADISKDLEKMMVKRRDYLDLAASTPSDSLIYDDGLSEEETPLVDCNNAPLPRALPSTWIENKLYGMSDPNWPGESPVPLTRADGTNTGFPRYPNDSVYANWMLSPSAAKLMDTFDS

T4: TSSK2(h) (human, UniProt Q96PF2 1-358)
T4 sequence (looked up): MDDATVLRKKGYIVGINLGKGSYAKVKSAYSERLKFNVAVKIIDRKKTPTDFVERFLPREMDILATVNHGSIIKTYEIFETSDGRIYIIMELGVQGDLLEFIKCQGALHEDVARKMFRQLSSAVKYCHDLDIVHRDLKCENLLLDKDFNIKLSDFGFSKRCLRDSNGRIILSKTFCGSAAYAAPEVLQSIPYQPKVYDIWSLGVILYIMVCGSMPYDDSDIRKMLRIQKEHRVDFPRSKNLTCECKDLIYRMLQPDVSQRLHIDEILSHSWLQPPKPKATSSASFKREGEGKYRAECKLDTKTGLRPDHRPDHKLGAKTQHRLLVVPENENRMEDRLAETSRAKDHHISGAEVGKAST


Columns and labels:
Assay in all cases: cell-based or functional assay
[1] = biological target: PDGFRβ(h) (human, UniProt P09619 557-1106, limits assumed)
Chain of PDGFRβ(h) (P09619 557-1106 limits assumed): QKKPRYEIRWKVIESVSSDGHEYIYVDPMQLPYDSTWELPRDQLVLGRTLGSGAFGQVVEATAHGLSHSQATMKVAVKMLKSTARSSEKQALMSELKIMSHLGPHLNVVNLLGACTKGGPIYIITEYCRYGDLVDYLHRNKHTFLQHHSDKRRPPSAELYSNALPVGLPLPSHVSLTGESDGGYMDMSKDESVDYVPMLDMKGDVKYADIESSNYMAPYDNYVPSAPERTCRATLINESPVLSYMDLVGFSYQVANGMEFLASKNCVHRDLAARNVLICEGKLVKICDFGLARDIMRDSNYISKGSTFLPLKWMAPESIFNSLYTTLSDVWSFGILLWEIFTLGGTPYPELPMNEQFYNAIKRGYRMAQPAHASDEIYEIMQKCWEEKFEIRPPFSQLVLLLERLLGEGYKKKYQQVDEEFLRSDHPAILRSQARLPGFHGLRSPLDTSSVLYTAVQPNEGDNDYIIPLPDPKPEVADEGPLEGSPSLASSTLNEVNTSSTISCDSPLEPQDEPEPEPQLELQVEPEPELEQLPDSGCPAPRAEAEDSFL

[2] = biological target: WNK3(h) (human, UniProt Q9BYP7 1-434, limits assumed)
Chain of WNK3(h) (Q9BYP7 1-434 limits assumed): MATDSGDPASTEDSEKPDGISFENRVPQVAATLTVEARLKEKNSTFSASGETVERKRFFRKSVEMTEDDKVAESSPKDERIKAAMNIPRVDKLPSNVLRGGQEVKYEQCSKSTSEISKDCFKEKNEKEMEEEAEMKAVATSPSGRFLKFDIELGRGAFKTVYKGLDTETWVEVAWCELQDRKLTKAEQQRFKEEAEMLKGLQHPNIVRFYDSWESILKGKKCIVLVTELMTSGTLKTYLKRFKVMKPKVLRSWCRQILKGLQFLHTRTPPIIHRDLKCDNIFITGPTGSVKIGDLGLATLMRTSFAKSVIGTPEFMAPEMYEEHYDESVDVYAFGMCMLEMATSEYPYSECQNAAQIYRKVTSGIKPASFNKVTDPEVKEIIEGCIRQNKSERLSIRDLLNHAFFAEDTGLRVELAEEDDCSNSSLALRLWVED

[3] = biological target: WNK2(h) (human, UniProt Q9Y3S1 166-489, limits assumed)
Chain of WNK2(h) (Q9Y3S1 166-489 limits assumed): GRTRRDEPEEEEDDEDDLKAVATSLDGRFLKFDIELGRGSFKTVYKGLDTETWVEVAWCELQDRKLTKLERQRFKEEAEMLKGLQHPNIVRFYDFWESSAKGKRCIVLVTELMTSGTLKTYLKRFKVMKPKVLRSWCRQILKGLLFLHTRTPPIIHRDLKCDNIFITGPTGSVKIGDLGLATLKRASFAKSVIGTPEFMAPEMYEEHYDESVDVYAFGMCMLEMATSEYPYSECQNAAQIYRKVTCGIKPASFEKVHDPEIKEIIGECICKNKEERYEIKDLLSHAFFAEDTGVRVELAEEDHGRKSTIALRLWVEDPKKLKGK

[4] = biological target: HIPK1(h) (human, UniProt Q86Z02 158-555, limits assumed)
Chain of HIPK1(h) (Q86Z02 158-555 limits assumed): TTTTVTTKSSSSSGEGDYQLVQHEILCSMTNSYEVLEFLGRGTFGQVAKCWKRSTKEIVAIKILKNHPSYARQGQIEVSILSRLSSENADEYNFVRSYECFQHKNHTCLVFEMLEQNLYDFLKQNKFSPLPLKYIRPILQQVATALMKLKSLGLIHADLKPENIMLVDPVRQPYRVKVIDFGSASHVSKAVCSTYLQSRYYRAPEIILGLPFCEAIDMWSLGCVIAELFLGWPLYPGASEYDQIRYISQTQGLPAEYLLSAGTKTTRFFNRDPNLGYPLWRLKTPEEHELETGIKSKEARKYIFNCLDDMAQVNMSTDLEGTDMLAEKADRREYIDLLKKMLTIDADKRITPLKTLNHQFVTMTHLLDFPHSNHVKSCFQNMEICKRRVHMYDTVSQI

[5] = biological target: NEK7(h) (human, UniProt Q8TDX7 1-302)
Chain of NEK7(h) (Q8TDX7 whole entry): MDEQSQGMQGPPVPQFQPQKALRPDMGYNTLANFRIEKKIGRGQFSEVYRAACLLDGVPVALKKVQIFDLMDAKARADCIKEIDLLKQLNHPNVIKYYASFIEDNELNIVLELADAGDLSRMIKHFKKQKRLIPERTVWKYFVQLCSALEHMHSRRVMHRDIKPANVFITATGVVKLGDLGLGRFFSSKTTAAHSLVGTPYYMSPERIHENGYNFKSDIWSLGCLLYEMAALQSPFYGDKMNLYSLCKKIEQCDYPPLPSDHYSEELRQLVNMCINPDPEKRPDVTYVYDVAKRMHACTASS

[6] = biological target: T1, Flt3(h)
[7] = biological target: SAPK2b(h) (human, UniProt Q15759 1-364)
Chain of SAPK2b(h) (Q15759 whole entry): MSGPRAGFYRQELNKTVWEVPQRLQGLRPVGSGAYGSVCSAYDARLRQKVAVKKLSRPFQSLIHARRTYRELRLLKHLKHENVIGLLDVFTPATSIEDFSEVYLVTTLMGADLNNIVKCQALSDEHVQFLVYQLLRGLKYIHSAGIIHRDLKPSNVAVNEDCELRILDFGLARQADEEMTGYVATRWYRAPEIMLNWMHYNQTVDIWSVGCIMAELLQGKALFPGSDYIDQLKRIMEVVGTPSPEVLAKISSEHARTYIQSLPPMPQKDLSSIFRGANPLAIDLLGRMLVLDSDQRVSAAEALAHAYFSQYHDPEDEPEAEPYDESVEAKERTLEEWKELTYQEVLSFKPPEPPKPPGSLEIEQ

[8] = biological target: Src(1-530)(h) (human, UniProt P12931 1-530)
[9] = biological target: T2, Ret(V804L)(h)
[10] = biological target: T3, Ret(h)
[11] = biological target: Yes(h) (human, UniProt P07947 1-543)
Chain of Yes(h) (P07947 whole entry): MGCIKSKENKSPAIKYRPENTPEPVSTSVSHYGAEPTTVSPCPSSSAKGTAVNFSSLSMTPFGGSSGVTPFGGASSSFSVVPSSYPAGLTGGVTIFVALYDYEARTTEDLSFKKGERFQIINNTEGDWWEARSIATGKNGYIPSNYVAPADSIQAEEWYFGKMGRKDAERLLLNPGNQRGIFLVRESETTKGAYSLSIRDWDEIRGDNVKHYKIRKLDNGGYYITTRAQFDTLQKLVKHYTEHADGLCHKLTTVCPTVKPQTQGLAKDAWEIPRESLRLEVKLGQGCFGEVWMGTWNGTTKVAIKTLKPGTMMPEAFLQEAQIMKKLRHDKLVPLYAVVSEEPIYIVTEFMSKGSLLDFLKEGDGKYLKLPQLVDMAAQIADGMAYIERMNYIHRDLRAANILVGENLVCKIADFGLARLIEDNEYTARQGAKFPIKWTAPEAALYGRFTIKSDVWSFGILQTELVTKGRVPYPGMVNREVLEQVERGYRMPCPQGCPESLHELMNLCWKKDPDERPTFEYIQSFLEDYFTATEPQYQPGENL

[12] = biological target: LIMK1(h) (human, UniProt P53667 285-638, limits assumed)
Chain of LIMK1(h) (P53667 285-638 limits assumed): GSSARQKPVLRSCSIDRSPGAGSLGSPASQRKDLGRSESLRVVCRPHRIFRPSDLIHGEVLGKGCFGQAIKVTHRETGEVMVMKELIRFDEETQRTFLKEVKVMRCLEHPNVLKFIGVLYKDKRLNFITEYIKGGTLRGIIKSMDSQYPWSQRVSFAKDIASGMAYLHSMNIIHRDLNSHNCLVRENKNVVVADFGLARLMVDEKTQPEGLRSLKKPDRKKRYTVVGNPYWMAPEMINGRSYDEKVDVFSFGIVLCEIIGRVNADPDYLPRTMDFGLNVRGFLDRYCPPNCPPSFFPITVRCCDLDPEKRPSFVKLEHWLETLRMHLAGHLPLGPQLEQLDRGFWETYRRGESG

[13] = biological target: T4, TSSK2(h)
[14] = biological target: Abl(Q252H)(h) (human, UniProt P00519 27-1130, limits assumed)
Chain of Abl(Q252H)(h) (P00519 27-1130 Q252H limits assumed): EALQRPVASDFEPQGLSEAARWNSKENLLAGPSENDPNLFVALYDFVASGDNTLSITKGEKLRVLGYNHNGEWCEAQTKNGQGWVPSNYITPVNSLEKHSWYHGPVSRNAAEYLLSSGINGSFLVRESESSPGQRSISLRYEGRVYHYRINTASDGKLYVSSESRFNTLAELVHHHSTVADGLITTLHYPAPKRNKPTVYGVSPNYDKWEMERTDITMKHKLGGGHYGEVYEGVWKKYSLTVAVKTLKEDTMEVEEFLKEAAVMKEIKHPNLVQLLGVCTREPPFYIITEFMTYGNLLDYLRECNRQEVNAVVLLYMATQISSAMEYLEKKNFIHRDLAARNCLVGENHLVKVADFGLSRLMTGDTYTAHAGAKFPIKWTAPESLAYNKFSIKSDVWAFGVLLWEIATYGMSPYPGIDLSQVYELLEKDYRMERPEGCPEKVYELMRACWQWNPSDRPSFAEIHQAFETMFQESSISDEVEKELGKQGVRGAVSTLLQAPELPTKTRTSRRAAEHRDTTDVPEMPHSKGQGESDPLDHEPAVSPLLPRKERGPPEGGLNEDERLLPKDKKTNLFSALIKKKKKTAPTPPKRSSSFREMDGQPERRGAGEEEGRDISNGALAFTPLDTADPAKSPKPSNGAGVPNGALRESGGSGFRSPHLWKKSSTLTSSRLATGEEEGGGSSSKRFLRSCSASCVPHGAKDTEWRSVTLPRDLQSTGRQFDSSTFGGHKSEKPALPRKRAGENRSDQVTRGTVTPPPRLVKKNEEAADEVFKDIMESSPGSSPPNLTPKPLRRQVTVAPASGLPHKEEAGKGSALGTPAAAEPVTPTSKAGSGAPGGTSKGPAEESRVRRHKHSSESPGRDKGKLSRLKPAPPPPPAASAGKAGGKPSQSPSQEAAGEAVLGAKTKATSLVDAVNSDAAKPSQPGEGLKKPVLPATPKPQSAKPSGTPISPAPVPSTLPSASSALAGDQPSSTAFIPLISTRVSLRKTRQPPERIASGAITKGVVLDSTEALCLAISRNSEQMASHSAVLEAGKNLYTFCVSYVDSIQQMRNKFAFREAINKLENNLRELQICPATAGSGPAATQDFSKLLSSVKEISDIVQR

[15] = biological target: FGFR1(h) (human, UniProt P11362 456-765, limits assumed)
Chain of FGFR1(h) (P11362 456-765 limits assumed): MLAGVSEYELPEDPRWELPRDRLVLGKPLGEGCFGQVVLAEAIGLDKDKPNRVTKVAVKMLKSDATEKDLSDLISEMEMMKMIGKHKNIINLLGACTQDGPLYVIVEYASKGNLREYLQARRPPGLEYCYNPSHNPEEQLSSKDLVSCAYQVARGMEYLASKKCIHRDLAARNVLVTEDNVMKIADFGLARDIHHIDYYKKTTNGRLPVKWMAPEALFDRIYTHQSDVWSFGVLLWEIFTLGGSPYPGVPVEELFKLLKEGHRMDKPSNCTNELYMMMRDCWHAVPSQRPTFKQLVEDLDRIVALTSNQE

Binder | % activity, 100 µM [1] [%] | % activity, 100 µM [2] [%] | % activity, 100 µM [3] [%] | % activity, 100 µM [4] [%] | % activity, 100 µM [5] [%] | % activity, 100 µM [6] [%] | % activity, 100 µM [7] [%] | % activity, 100 µM [8] [%] | % activity, 100 µM [9] [%] | % activity, 100 µM [10] [%] | % activity, 100 µM [11] [%] | % activity, 100 µM [12] [%] | % activity, 100 µM [13] [%] | % activity, 100 µM [14] [%] | % activity, 100 µM [15] [%]
KAFAKLAARLYRKALARQLGVAA [MMI-0400] | 53 | 74 | 54 | 91 | 87 | 18 | 82 | 19 | 73 | 145 | 14 | 92 | 94 | 98 | 59
FAKLAARLYRKALARQLGVAA [MMI-0300] | 81 | 77 | 64 | 74 | 84 | 84 | 81 | 23 | 79 | 140 | 67 | 88 | 98 | 82 | 55
